Test results as given in patent US5972599, “High affinity nucleic acid ligands of cytokines” (NeXstar Pharmaceuticals, Inc.).
Numbering of substitutions follows the chain as printed.

What was measured:
TNF-alpha [1] = biological target: T1, TNF-alpha (Homo sapiens, UniProt P01375 P01375:77-233); test: competition; U937 cells; 2'F version; settings: tags: Genzyme or R&D Systems; chain copies: 3 inferred
Description: (§1) A receptor binding competition assay was used to determine the bioactivity of the RNA ligands. ^125I labelled hTNFα at 0.1 nM was incubated in 50 µl of binding medium (PBS with 0.5 mM Mg^++, 0.2% BSA, 0.02% sodium azide, 1 U/µl RNasin) for 15 min at 4° C. with serially diluted competitors at 10^-4 to 10^-11 M, and 1×10^4/µl U937 cells. Duplicate aliquots were subsequently removed, centrifuged through 2:1 dibutyl-phthalate:dinonyl-phthalate mixture to separate free and bound ^125I labelled hTNFα, and the radioactivity in the pellet was measured on a gamma counter. Nonspecific binding was determined by inclusion of a 200-fold molar excess of unlabeled TNF.

TNF-alpha [2] = biological target: T1, TNF-alpha; test: filter; 2'F version; settings: tags: Genzyme or R&D Systems; chain copies: 3 inferred
TNF-alpha [3] = biological target: T1, TNF-alpha; test: filter; class I; settings: tags: Genzyme or R&D Systems; chain copies: 3 inferred
IL-4 [4] = biological target: T2, IL-4 (Homo sapiens, UniProt P05112 P05112:25-153); test: filter; group 2 stated to bind IL-4; settings: tags: R&D Systems
T2 sequence (P05112 25-153, one chain of several): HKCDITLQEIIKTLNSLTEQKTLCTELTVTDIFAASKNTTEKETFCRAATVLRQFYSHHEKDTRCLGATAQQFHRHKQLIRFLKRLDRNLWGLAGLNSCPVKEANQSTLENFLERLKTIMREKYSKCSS

TNF-alpha [5] = biological target: T1, TNF-alpha; test: filter; no value shown, Kd above 1 uM per footnote; DPBS; settings: tags: Genzyme or R&D Systems; chain copies: 3
IL-4 [6] = biological target: T2, IL-4; test: filter; full-length; settings: tags: R&D Systems
TNF-alpha [7] = biological target: T1, TNF-alpha; test: competition; U937 cells; settings: tags: Genzyme or R&D Systems; chain copies: 3 inferred
Description: as §1

T1 sequence (P01375 77-233, one chain of several): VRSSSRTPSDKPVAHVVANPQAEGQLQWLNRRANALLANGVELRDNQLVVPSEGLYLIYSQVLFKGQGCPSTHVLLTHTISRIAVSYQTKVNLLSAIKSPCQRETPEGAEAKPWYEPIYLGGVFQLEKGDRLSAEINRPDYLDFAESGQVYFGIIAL

B1: TNF 6A 2'F (ssRNA)
RNA: GGGAGCUCAGAAUAAACGCUCAACCACUGGCUAGGAACUCGAGUACUGGGUGGUUCGACAUGAGGCCCGGAUCCGGC
modifications: 2'-F all C and U
In the case of B1, the Ki (TNF-alpha [1]) is reported as 8.16 µM and the Kd (TNF-alpha [2]) is reported as 0.074 µM.

B2: TNF 10C (ssRNA)
RNA: GGGAGCUCAGAAUAAACGCUCAACGCCGAGACCCACCUCAUAACACCGCUACCUUCGACAUGAGGCCCGGAUCCGGC
With B2 the Kd (TNF-alpha [3]) was 0.5 µM.

B3: IL-4 2'F/NH2-14 (ssRNA)
RNA: GGGAGACAAGAAUAAACGCUCAACAGCCAAGGGUUGGAUAGGGGGUAGGGAGCCGUAGCAGCGUUCGACAGGAGGCUCACAACAGGC
modifications: 2'-F C, 2'-NH2 U
B3: binds (IL-4 [4]).

B4: IL-4 2'F/NH2-16 (ssRNA)
RNA: GGGAGACAAGAAUAAACGCUCAAGGUACGACCAAGGAAUGUGGGUGGAAGAGGGCGCCGUACCUUCGACAGGAGGCUCACAACAGGC
modifications: 2'-F C, 2'-NH2 U
B4: binds (IL-4 [4]).

B5: IL-4 2'F/NH2-11 (ssRNA)
RNA: B4 RNA with C55U
modifications: 2'-F C, 2'-NH2 U
B5: binds (IL-4 [4]).

B6: TNF 3A 2'F (ssRNA)
RNA: GGGAGCUCAGAAUAAACGCUCAAGAUCGACGCAUCGAGUCGCCUCAUCGCUCCUUCGACAUGAGGCCCGGAUCCGGC
modifications: 2'-F all C and U
For B6, the Kd (TNF-alpha [2]) was 0.623 µM.

B7: TNF 19A (ssRNA)
RNA: GGGAGCUCAGAAUAAACGCUCAAGUCGAUGCGCAGUCCGCCUCAGCUGCACUGUUCGACAUGAGGCCCGGAUCCGGC
B7 was tested, and the Kd (TNF-alpha [5]) was over 1 µM.

B8: TNF 21A (ssRNA)
RNA: GGGAGCUCAGAAUAAACGCUCAACGUCUAGGAACUGCGUCGCCUCAACAGCGCUUCGACAUGAGGCCCGGAUCCGGC
With B8 the Kd (TNF-alpha [5]) was over 1 µM.

B9: IL-4 2'F/NH2-43 (ssRNA)
RNA: GGGAGACAAGAAUAAACGCUCAACAACGCUGACCAUGGGAGGAAUGUGGGAAGGGCGCCAGCGUUCGACAGGAGGCUCACAACAGGC
modifications: 2'-F C, 2'-NH2 U
B9: binds (IL-4 [4]).

B10: TNF 9C 2'F (ssRNA)
RNA: GGGAGCUCAGAAUAAACGCUCAAAUGGUGGAGGCCAUCUCAAACCCACGACACUUCGACAUGAGGCCCGGAUCCGGC
modifications: 2'-F all C and U
With B10 the Kd (TNF-alpha [2]) was 0.4 µM.

B11: IL-4 2'F/NH2-28 (ssRNA)
RNA: GGGAGACAAGAAUAAACGCUCAAGAUCCUGCGACGCCAGGGGUGGAUAGGGGGAAGGGAGCGGUUCGACAGGAGGCUCACAACAGGC
modifications: 2'-F all C, 2'-NH2 all U
For B11, the Kd (IL-4 [6]) was 0.0087 µM.

B12: TNF 23A 2'F (ssRNA)
RNA: GGGAGCUCAGAAUAAACGCUCAACCUCAUCCUCGCACGCCAUCGCCUGAACCGUUCGACAUGAGGCCCGGAUCCGGC
modifications: 2'-F all C and U
B12 gave a Ki (TNF-alpha [1]) of 14.7 µM and a Kd (TNF-alpha [2]) of 0.4 µM.

B13: IL-4 2'F-21 (ssRNA)
RNA: GGGAGACAAGAAUAAACGCUCAAAGGAGCGCCAUGAAGCAAAGGGAGGAUUGUGGUGGAAGGCUUCGACAGGAGGCUCACAACAGGC
modifications: 2'-F all C and U
B13 showed a Kd (IL-4 [6]) of 0.011 µM.

B14: TNF 22A (ssRNA)
RNA: GGGAGCUCAGAAUAAACGCUCAAGUCGGAUGGUUUUGCGCGUUUCCCGUUCGACAUGAGGCCCGGAUCCGGC
Work on B14 yielded a Kd (TNF-alpha [5]) of over 1 µM.

B15: IL-4 2'F/NH2-2 (ssRNA)
RNA: GGGAGACAAGAAUAAACGCUCAAGACGAACGACCAAGGGACGGGUGGGCAAAUAGGGAUGCCGUUCGACAGGAGGCUCACAACAGGC
modifications: 2'-F C, 2'-NH2 U
B15: binds (IL-4 [4]).

B16: TNF 16C 2'F (ssRNA)
RNA: GGGAGCUCAGAAUAAACGCUCAACCUGGUGGUCGUGCGGCUGUCGCCUCAAGGUUCGACAUGAGGCCCGGAUCCGGC
modifications: 2'-F all C and U
Binder B16 has a Ki (TNF-alpha [1]) of 9.19 µM and a Kd (TNF-alpha [2]) of 0.123 µM.

B17: TNF 4C (ssRNA)
RNA: GGGAGCUCAGAAUAAACGCUCAACUAGGCCCACCGUCCCUUCUAACAACGUCUUCGACAUGAGGCCCGGAUCCGGC
With B17 the Kd (TNF-alpha [3]) was 0.092 µM and the Ki (TNF-alpha [7]) was 1.2 µM.

B18: IL-4 2'F-12 (ssRNA)
RNA: GGGAGACAAGAAUAAACGCUCAAGUCUGACUAUUGGGGCGCCACAAUAUCAACGGCUGUACUUCGACAGGAGGCUCACAACAGGC
modifications: 2'-F all C and U
B18 showed a Kd (IL-4 [6]) of 0.03 µM.

B19: TNF 4A 2'F (ssRNA)
RNA: GGGAGCUCAGAAUAAACGCUCAACGCACUCGGACGGAAUCUCCGUAGGACACGUUCGACAUGAGGCCCGGAUCCGGC
modifications: 2'-F all C and U
In the case of B19, the Kd (TNF-alpha [2]) is reported as 0.178 µM.

B20: TNF 12C (ssRNA)
RNA: GGGAGCUCAGAAUAAACGCUCAAGUCCGCAUGAUGCUUCGAACAGCAUACAACUUCGACAUGAGGCCCGGAUCCGGC
B20 was tested, and the Kd (TNF-alpha [3]) was 0.69 µM.

B21: TNF 25A 2'F (ssRNA)
RNA: B20 RNA with U25G, A33C, U34C, G35C, U38C, G40U, A49G
modifications: 2'-F all C and U
Work on B21 yielded a Kd (TNF-alpha [2]) of 0.445 µM.

B22: TNF 14C 2'F (ssRNA)
RNA: GGGAGCUCAGAAUAAACGCUCAACGGCUUGCAGGUCGCCGAAAUGACCGCACAUUCGACAUGAGGCCCGGAUCCGGC
modifications: 2'-F all C and U
In the case of B22, the Ki (TNF-alpha [1]) is reported as 11.5 µM and the Kd (TNF-alpha [2]) is reported as 0.133 µM.

B23: IL-4 2'F/NH2-18 (ssRNA)
RNA: GGGAGACAAGAAUAAACGCUCAACCGCCUGCGAUAGUUAGACCGUUGAGCUGAGAGCAACACUUUCGACAGGAGGCUCACAACAGGC
modifications: 2'-F all C, 2'-NH2 all U
Binder B23 has a Kd (IL-4 [6]) of 0.03 µM.

B24: IL-4 2'NH2-29 (ssRNA)
RNA: GGGAGACAAGAAUAAACGCUCAAGAGCUGGUGAGCCACGUAUACGGCCUUAGGGGCUUGGGCGUUCGACAGGAGGCUCACAACAGGC
modifications: 2'-NH2 all C and U
B24 showed a Kd (IL-4 [6]) of 0.0083 µM.

B25: TNF 15A (ssRNA)
RNA: GGGAGCUCAGAAUAAACGCUCAACGUCGAUCGCGUGCUGUAGCCUCAGGCACCUUCGACAUGAGGCCCGGAUCCGGC
B25 gave a Kd (TNF-alpha [5]) of over 1 µM.

B26: TNF 6C (ssRNA)
RNA: GGGAGCUCAGAAUAAACGCUCAAUGUCGCACGUGUCCCGGCCCGCCCUACCCCUUCGACAUGAGGCCCGGAUCCGGC
For B26, the Kd (TNF-alpha [5]) was over 1 µM.

B27: TNF 5C (ssRNA)
RNA: GGGAGCUCAGAAUAAACGCUCAACAGUCACGAACGUGCGCCGGAAGAACGCUCUUCGACAUGAGGCCCGGAUCCGGC
B27 showed a Kd (TNF-alpha [5]) of over 1 µM.

B28: TNF 17A (ssRNA)
RNA: GGGAGCUCAGAAUAAACGCUCAAGGUCGAACUAGCGCUGGAGCGUGCGUUGGUUUCGACAUGAGGCCCGGAUCCGGC
For B28, the Kd (TNF-alpha [5]) was over 1 µM.

B29: TNF 8A (ssRNA)
RNA: GGGAGCUCAGAAUAAACGCUCAACAGUGGAGGCUGUCCAAACCCACCCACCCCUUCGACAUGAGGCCCGGAUCCGGC
In the case of B29, the Kd (TNF-alpha [3]) is reported as 0.785 µM.

B30: TNF 7C (ssRNA)
RNA: GGGAGCUCAGAAUAAACGCUCAACAGGUGGCACCGCCCUUCCAACACGGUGCGUUCGACAUGAGGCCCGGAUCCGGC
In the case of B30, the Kd (TNF-alpha [3]) is reported as 0.297 µM.

B31: TNF 7C 2'F (ssRNA)
RNA: B30 RNA
modifications: 2'-F all C and U
B31 gave a Kd (TNF-alpha [2]) of 0.442 µM.

B32: TNF 17C (ssRNA)
RNA: GGGAGCUCAGAAUAAACGCUCAAGAUCGAAGUUGUCGUCCGCCUCAGCGACUCUUCGACAUGAGGCCCGGAUCCGGC
With B32 the Kd (TNF-alpha [5]) was over 1 µM.

B33: TNF 27A (ssRNA)
RNA: GGGAGCUCAGAAUAAACGCUCAAGUCGCUCGAUCGUUUCAUGUCCGUUCGACCUUCGACAUGAGGCCCGGAUCCGGC
Work on B33 yielded a Kd (TNF-alpha [5]) of over 1 µM.

B34: TNF 8C 2'F (ssRNA)
RNA: GGGAGCUCAGAAUAAACGCUCAAGUCCACACUUUGCCGAGCGUCCUAGUGUUCGACAUGAGGCCCGGAUCCGGC
modifications: 2'-F all C and U
In the case of B34, the Kd (TNF-alpha [2]) is reported as 0.503 µM.

B35: TNF 16A (ssRNA)
RNA: GGGAGCUCAGAAUAAACGCUCAAGGUGGAAGGCCUUUGAAGCCCGUACAUCUCCUUCGACAUGAGGCCCGGAUCCGGC
B35 gave a Kd (TNF-alpha [5]) of over 1 µM.

B36: TNF 26A (ssRNA)
RNA: GGGAGCUCAGAAUAAACGCUCAACCCUCGUGCGUGCGCUUGGAGCGUGGCGCAUUCGACAUGAGGCCCGGAUCCGGC
B36 showed a Kd (TNF-alpha [5]) of over 1 µM.

B37: IL-4 2'F-18 (ssRNA)
RNA: GGGAGACAAGAAUAAACGCUCAAGCUGCCCAAGGAAUUUAACUUGGACCGCGAUCUGGAGUCUUCGACAGGAGGCUCACAACAGGC
modifications: 2'-F all C and U
Work on B37 yielded a Kd (IL-4 [6]) of 0.043 µM.
